What all share (test): PBM
The target in series [1] is GCN5 complex (Homo sapiens (THP-1-derived macrophages)) (UniProt Q92830). The conditions noted are these: IFNg+LPS extract; Nuclear extract PBM (PMA-differentiated THP-1; untreated, LPS 45 min, or IFNg+LPS), antibody detection; buffer, salt, pH and temperature not in the material.
The target in series [2] is RBBP5 complex (Homo sapiens (THP-1-derived macrophages)) (UniProt Q15291). To be noted: Nuclear extract PBM (PMA-differentiated THP-1; untreated, LPS 45 min, or IFNg+LPS), antibody detection, buffer, salt, pH and temperature not in the material.
Sequence of RBBP5 complex (Homo sapiens (THP-1-derived macrophages)) (Q15291 whole entry, one chain of several): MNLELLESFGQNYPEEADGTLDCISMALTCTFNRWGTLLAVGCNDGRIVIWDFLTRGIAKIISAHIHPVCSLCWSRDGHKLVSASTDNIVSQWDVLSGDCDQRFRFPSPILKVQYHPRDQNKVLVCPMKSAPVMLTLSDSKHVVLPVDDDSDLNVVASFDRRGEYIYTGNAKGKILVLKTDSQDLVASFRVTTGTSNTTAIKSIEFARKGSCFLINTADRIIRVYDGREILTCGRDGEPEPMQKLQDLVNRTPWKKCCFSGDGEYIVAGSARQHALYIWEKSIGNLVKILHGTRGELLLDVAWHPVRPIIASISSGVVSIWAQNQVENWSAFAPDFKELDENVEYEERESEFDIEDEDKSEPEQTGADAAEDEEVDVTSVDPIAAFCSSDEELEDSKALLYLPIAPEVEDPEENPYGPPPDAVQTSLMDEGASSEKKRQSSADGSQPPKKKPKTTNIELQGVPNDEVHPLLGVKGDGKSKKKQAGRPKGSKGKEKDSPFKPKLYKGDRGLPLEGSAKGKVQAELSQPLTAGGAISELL
The target of series [3] is T1, TBL1XR1 complex (Homo sapiens (THP-1-derived macrophages)) (UniProt Q9BZK7).
T1 sequence: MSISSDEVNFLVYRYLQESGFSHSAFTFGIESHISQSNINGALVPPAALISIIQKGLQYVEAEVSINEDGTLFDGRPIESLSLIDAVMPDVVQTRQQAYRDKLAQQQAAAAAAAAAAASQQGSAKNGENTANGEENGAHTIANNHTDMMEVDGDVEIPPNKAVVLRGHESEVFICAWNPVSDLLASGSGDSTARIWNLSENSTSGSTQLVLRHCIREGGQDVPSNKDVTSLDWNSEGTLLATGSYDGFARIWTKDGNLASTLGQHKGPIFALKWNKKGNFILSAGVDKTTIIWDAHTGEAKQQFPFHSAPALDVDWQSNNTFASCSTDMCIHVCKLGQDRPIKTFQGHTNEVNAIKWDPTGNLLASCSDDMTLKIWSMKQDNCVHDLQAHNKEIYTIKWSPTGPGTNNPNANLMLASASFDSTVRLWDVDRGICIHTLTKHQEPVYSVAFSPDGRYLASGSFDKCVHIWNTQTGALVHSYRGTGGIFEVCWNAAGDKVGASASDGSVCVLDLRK
To be noted: IFNg+LPS extract, Nuclear extract PBM (PMA-differentiated THP-1; untreated, LPS 45 min, or IFNg+LPS), antibody detection, buffer, salt, pH and temperature not in the material.

Series [4] addresses p65 (RELA, NF-kB) (Homo sapiens (THP-1-derived macrophages)) (UniProt Q04206). The conditions noted are these: Nuclear extract PBM (PMA-differentiated THP-1; untreated, LPS 45 min, or IFNg+LPS), antibody detection, buffer, salt, pH and temperature not in the material.
The target in series [5] is T2, IRF3 (Homo sapiens (THP-1-derived macrophages)) (UniProt Q14653).
T2 sequence: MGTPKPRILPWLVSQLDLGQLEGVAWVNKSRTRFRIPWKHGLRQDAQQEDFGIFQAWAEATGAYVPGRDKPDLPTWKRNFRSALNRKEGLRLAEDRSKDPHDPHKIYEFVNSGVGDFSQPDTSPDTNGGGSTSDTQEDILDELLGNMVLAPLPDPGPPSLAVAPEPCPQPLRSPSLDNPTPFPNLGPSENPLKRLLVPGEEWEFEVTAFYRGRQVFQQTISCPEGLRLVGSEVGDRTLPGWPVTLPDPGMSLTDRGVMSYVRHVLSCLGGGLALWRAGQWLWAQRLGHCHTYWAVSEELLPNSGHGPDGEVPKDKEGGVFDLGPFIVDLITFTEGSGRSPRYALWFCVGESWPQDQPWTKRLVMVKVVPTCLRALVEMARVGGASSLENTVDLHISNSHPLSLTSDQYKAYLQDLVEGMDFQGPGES
The conditions noted are these: LPS 45 min extract; likely tethered by NF-kB; Nuclear extract PBM (PMA-differentiated THP-1; untreated, LPS 45 min, or IFNg+LPS), antibody detection; buffer, salt, pH and temperature not in the material.

The target of series [6] is p300 complex (Homo sapiens (THP-1-derived macrophages)) (UniProt Q09472). The conditions noted are these: Nuclear extract PBM (PMA-differentiated THP-1; untreated, LPS 45 min, or IFNg+LPS), antibody detection, buffer, salt, pH and temperature not in the material.
Sequence of p300 complex (Homo sapiens (THP-1-derived macrophages)) (Q09472 whole entry, one chain of several): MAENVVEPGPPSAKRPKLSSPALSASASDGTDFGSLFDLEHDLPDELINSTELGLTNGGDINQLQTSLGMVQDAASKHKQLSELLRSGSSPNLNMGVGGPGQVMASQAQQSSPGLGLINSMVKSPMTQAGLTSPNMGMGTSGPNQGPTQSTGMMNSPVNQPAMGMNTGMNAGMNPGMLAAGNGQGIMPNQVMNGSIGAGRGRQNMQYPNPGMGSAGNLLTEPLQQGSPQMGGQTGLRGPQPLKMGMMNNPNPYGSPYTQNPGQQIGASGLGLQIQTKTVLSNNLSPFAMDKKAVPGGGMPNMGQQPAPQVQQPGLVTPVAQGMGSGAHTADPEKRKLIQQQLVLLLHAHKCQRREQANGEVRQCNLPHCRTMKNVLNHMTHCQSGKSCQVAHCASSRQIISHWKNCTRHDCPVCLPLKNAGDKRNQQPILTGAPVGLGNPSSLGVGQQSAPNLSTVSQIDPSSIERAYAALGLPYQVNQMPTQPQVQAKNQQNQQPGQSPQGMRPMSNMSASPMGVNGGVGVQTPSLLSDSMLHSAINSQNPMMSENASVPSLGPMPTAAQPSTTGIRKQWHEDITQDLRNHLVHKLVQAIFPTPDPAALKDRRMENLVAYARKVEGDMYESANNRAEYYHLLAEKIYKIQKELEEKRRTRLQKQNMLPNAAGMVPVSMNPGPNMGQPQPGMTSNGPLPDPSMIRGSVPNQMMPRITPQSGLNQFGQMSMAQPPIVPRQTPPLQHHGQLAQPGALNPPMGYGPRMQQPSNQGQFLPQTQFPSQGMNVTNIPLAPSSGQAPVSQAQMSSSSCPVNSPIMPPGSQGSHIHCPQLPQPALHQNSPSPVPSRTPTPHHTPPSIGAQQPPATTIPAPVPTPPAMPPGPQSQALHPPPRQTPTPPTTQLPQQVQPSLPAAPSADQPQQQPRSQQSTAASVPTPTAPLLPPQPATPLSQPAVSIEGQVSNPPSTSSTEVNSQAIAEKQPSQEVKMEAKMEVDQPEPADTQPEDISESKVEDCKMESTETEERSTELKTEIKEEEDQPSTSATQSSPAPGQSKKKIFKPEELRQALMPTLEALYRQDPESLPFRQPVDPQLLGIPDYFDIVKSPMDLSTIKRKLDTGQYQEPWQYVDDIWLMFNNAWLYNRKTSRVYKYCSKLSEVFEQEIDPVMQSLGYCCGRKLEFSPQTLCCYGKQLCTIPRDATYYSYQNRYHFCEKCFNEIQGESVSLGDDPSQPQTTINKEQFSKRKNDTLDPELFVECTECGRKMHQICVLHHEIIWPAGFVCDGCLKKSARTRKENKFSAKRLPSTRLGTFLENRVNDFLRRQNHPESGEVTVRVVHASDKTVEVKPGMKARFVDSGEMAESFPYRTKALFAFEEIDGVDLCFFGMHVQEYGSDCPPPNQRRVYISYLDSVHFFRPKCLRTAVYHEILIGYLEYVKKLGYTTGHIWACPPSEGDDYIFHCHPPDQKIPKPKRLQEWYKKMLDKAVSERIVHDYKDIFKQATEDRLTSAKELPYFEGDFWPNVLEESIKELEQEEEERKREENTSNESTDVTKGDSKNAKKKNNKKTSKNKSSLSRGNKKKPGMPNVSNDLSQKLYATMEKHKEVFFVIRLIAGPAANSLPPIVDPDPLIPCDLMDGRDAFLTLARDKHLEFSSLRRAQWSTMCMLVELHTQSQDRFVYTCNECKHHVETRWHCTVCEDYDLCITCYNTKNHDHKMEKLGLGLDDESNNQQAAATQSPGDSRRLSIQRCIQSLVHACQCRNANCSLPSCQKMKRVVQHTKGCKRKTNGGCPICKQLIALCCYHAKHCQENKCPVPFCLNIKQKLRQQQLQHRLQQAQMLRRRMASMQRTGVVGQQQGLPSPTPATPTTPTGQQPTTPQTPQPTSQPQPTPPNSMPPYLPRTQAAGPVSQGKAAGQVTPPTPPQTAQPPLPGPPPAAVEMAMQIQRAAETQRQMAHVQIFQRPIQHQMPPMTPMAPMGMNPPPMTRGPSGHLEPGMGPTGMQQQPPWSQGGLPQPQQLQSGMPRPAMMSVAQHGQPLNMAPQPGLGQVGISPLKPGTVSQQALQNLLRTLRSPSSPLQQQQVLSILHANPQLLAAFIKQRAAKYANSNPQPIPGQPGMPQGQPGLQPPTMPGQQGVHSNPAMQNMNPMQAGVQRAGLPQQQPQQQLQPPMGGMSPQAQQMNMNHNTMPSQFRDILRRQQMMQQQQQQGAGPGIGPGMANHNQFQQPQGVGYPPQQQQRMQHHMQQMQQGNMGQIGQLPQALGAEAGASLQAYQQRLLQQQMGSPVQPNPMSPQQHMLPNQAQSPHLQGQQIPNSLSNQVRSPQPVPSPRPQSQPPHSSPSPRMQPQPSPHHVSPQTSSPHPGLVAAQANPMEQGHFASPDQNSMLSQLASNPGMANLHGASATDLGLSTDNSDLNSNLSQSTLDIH
Series [7] deals with PU.1 (Homo sapiens (THP-1-derived macrophages)) (UniProt P17947). To be noted: IFNg+LPS extract; Nuclear extract PBM (PMA-differentiated THP-1; untreated, LPS 45 min, or IFNg+LPS), antibody detection; buffer, salt, pH and temperature not in the material.
For series [8], the target named is SMARCA4/BRG1 complex (Homo sapiens (THP-1-derived macrophages)) (UniProt P51532). The conditions noted are these: IFNg+LPS extract, Nuclear extract PBM (PMA-differentiated THP-1; untreated, LPS 45 min, or IFNg+LPS), antibody detection, buffer, salt, pH and temperature not in the material.
The mark [9] stands for this setting: not recruited or below detection.

Sequence of p65 (RELA, NF-kB) (Homo sapiens (THP-1-derived macrophages)) (Q04206 whole entry): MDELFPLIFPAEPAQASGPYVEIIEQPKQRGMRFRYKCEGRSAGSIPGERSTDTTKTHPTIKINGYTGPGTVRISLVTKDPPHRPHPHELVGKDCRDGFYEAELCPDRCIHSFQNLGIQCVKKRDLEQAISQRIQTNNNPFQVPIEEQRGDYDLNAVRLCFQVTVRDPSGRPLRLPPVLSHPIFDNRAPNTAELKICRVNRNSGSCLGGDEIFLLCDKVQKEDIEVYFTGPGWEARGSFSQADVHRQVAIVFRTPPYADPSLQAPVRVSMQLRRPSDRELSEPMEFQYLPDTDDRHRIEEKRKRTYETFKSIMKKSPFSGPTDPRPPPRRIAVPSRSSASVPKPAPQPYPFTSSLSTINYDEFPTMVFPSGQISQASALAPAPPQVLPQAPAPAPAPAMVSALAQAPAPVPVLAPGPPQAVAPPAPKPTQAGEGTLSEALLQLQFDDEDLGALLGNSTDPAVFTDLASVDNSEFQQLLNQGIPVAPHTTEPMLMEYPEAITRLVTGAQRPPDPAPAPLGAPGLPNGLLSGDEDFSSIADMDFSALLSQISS
Sequence of GCN5 complex (Homo sapiens (THP-1-derived macrophages)) (Q92830 whole entry, one chain of several): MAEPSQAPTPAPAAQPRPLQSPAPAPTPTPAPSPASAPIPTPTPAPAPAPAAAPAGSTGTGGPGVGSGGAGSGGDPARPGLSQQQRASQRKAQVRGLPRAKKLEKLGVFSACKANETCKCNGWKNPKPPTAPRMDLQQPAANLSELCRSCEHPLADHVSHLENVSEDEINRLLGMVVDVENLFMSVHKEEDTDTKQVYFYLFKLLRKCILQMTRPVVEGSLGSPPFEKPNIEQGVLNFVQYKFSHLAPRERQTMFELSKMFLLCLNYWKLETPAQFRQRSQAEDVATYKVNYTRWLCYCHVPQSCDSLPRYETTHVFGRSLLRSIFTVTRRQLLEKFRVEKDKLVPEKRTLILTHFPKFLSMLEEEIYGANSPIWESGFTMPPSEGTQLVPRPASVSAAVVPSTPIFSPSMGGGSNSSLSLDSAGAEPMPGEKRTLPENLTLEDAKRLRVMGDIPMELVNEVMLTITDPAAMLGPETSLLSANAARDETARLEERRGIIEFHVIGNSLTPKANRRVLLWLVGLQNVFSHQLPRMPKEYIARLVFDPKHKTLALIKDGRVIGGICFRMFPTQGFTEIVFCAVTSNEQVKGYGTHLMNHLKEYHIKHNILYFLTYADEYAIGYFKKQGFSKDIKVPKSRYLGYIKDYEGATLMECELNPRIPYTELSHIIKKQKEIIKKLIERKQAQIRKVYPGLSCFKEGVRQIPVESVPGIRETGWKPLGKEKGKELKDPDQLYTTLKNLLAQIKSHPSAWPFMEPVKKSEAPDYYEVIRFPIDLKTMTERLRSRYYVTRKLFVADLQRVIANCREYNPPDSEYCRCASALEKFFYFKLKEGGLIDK

As for “GAAATTTAGAACAGAAAGTGAAACCA (double strand) [rs10833823 REF (A)]”, the binding signal came to 1.54 Z score in series [1], 10.6 Z score in series [2] (IFNg+LPS extract) and 9.71 Z score in series [3].

As for “GAAATTTAGAACGGAAAGTGAAACCA (double strand) [rs10833823 non-REF (G)]”, the binding signal worked out at 3.36 Z score in series [1], 15.8 Z score in series [2] (IFNg+LPS extract) and 28.5 Z score in series [3].

“GCCTAGAAGTCCCATGTTGCAGACTCGAAGGTCTAGGTCTTGATTCGCTTGACGCTGCTG (double strand) [CXCL10 tile 7]”: the binding signal in series [4] (LPS 45 min extract) came out at 0.56 Z score.

For the sequence “GCCTAGCAAAACCTGCTGGCTGTTCCTGGGGACTAGGTCTTGATTCGCTTGACGCTGCTG (double strand) [CXCL10 tile 2]”, the binding signal in series [4] (LPS 45 min extract) was -0.374 Z score.

Turning to “GCCTAGCCATGTTGCAGACTCGAAGGTATTATCTAGGTCTTGATTCGCTTGACGCTGCTG (double strand) [CXCL10 tile 8]”, in series [4] (LPS 45 min extract), the binding signal worked out at 0.079 Z score.

On to “GCCTAGCCTGCTGGCTGTTCCTGGGGAAGTCCCTAGGTCTTGATTCGCTTGACGCTGCTG (double strand) [CXCL10 tile 3]”, for which the binding signal is 3.17 Z score in series [5]; -1.16 Z score in series [2] (LPS 45 min extract); -0.828 Z score in series [2] (untreated extract); 3.75 Z score in series [6] (LPS 45 min extract, replicate 1 (replicate 2: 3.237)); -0.59 Z score in series [6] (untreated extract, replicate 1 (replicate 2: 0.462)); 20.9 Z score in series [4] (LPS 45 min extract). Moreover, the binding signal in series [4] (untreated extract) was determined as 7.49 Z score.

With “GCCTAGCTTAGCAAAACCTGCTGGCTGTTCCTCTAGGTCTTGATTCGCTTGACGCTGCTG (double strand) [CXCL10 tile 1]”, in series [4] (LPS 45 min extract), the binding signal worked out at 0.046 Z score.

As to “GCCTAGGAAGGTATTATTTATTGTAGCCTCCACTAGGTCTTGATTCGCTTGACGCTGCTG (double strand) [CXCL10 tile 11]”, the binding signal in series [4] (LPS 45 min extract) was -1.38 Z score.

With “GCCTAGGACTCGAAGGTATTATTTATTGTAGCCTAGGTCTTGATTCGCTTGACGCTGCTG (double strand) [CXCL10 tile 10]”, the binding signal in series [4] (LPS 45 min extract) is -0.567 Z score.

As for “GCCTAGGTTCCTGGGGAAGTCCCATGTTGCAGCTAGGTCTTGATTCGCTTGACGCTGCTG (double strand) [CXCL10 tile 5]”, in series [4] (LPS 45 min extract), the binding signal stood at 8.52 Z score.

In the case of “GCCTAGTATTATTTATTGTAGCCTCCAAGTTACTAGGTCTTGATTCGCTTGACGCTGCTG (double strand) [CXCL10 tile 12]”, the binding signal in series [4] (LPS 45 min extract) was -0.454 Z score.

On to “GCCTAGTGGCTGTTCCTGGGGAAGTCCCATGTCTAGGTCTTGATTCGCTTGACGCTGCTG (double strand) [CXCL10 tile 4]”, for which, in series [4] (LPS 45 min extract), the binding signal is 15 Z score.

Take “GCCTAGTGGGGAAGTCCCATGTTGCAGACTCGCTAGGTCTTGATTCGCTTGACGCTGCTG (double strand) [CXCL10 tile 6]”: the binding signal in series [4] (LPS 45 min extract) was 14.3 Z score.

For the sequence “GCCTAGTTGCAGACTCGAAGGTATTATTTATTCTAGGTCTTGATTCGCTTGACGCTGCTG (double strand) [CXCL10 tile 9]”, the binding signal in series [4] (LPS 45 min extract) was found to be 0.218 Z score.

For the sequence “TGATGCAATGAAATGGGGAAGTATTA (double strand) [rs11950944 non-REF (A)]”, the binding signal in series [7] was determined as 5.99 Z score; in series [8], 2.99 Z score; in series [3], 2.61 Z score; in series [6] (IFNg+LPS extract) it was 2.36 Z score.

In the case of “TGATGCAATGAAGTGGGGAAGTATTA (double strand) [rs11950944 REF (G)]”, the binding signal in series [7] was 4.04 Z score; in series [8] (setting [9]) it was -0.38 Z score; in series [3] (setting [9]), 0.37 Z score; in series [6] (IFNg+LPS extract, not recruited or below detection) it was -0.13 Z score.

These data come from paper PMC8896503.
